# From article doi:10.1101/2021.07.08.451689 (bioRxiv, 2021)
# Target: the molecule itself
# Test: SEC
row,Protein,binding result
1,"MLKL N-terminal domain of 154 amino acid residues with mutation D144K (domain or fragment, human, UniProt Q8NB16 1-154, looked up) MENLKHIITLGQVIHKRCEEMKYCKKQCRRLGHRVLGLIKPLEMLQDQGKRSVPSEKLTTAMNRFKAALEEANGEIEKFSNRSNICRFLTASQDKILFKDVNRKLSDVWKELSLLLQVEQRMPVSPISQGASWAQEDQQDADEKRRAFQMLRRD",binds
2,"MLKL N-terminal domain of 139 amino acid residues (domain or fragment, human, UniProt Q8NB16 1-139, looked up) MENLKHIITLGQVIHKRCEEMKYCKKQCRRLGHRVLGLIKPLEMLQDQGKRSVPSEKLTTAMNRFKAALEEANGEIEKFSNRSNICRFLTASQDKILFKDVNRKLSDVWKELSLLLQVEQRMPVSPISQGASWAQEDQQ",binds
